How the values were obtained:
Assay type in all cases: biochemical
[1] = Synthesis of N-caprinoyl-amino acid derivative, N-caprinoyl-D-amino acid and N-caprinoyl-peptide using purified acylamino acid synthetase, UPLC-MS detection; set-up: key: +: Detected; −: Not detected; conditions: +ATP
Outline: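 Purified enzyme (50 μg/mL) was incubated with 5 mM sodium caprate, 5 mM amino acid derivative, D-amino acid or peptide, 10 mM ATP, 10 mM MgCl2 and 1 mM DTT in 50 mM Tris-HCl, pH 8.0, for 24 h at 25 °C. After acidic methanol stop, UPLC-MS looked for the mass of the N-caprinoyl product.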

[2] = Synthesis of N-lauroylamino acid / N-lauroylamino acid derivative using purified acylamino acid synthetase, UPLC-MS detection; set-up: key: +: Detected; −: Not detected; conditions: +ATP
Protocol: 0.2 mL of a reaction solution containing 50 mM Tris-HCl, 5 mM amino acid or D-amino acid derivative, 5 mM sodium laurate, 10 mM ATP, 10 mM MgCl2, 1 mM DTT, 200 μg/mL of the purified enzyme, pH 8.0 was incubated at 25° C. for 24 hours. After completion of the reaction, 0.8 mL of the reaction stop solution (1% (v/v) phosphoric acid, 75% (v/v) methanol) was added, and the mixture was filtrated through the filter followed by being subjected to the UPLC-MS analysis to detect a signal of a molecular weight corresponding to an N-lauroyl-amino acid or an N-lauroyl-amino acid derivative. The condition for the UPLC-MS analysis is as described in Example 2.
As a result of the UPLC-MS analysis, the signal of the molecular weight corresponding to the N-lauroyl-amino acid or the N-lauroyl-amino acid derivative was confirmed in the reaction solution containing the enzyme in combination with the amino acid or the amino acid derivative shown in Table 5 below.

[3] = Quantification of produced N-acylamino acid (UV 210 nm) using purified acylamino acid synthetase; conditions: 5 mM sodium fatty acid, 200 μg/mL enzyme, 25° C., 24 hours; for Nα-caprinoyl-L-aspartic acid detected / Nα-capryloyl-L-aspartic acid detected / Nα-lauroyl-L-aspartic acid detected: 5 mM L-Asp
Protocol: 0.1 mL of a reaction solution containing 50 mM Tris-HCl, 5 mM amino acid, 5 mM sodium fatty acid, 10 mM ATP, 10 mM MgCl2, 1 mM DTT, 200 μg/mL of the purified enzyme, pH 8.0 was incubated at 25° C. for 24 hours. As amino acids, L-Asp was used in AtGH3-6, OsGH3-8, AtGH3-5, AtGH3-12, and Gly or L-Ala was used in CfHP. After completion of the reaction, 0.4 mL of the reaction stop solution (1% (v/v) phosphoric acid, 75% (v/v) methanol) was added, and the mixture was filtrated through the filter followed by being subjected to the UPLC-MS analysis to quantify the produced N-acylamino acid by detection at UV 210 nm. The condition for the UPLC-MS analysis is as descried in Example 2. As a result of the analysis, 3.9 mM of Nα-capryloyl-L-aspartic acid, 4.5 mM of Nα-caprinoyl-L-aspartic acid and 2.2 mM of Nα-lauroyl-L-aspartic acid were detected when AtGH3-6 was used; 4.3 mM of Nα-capryloyl-L-aspartic acid, 4.6 mM of Nα-caprinoyl-L-aspartic acid and 3.5 mM of Nα-lauroyl-L-aspartic acid were detected when OsGH3-8 was used; 4.1 mM of Nα-capryloyl-L-aspartic acid, 4.6 mM of Nα-caprinoyl-L-aspartic acid and 2.5 mM of Nα-lauroyl-L-aspartic acid were detected when AtGH3-5 was used; 1.6 mM of Nα-capryloyl-L-aspartic acid, 0.6 mM of Nα-caprinoyl-L-aspartic acid and 0.2 mM of Nα-lauroyl-L-aspartic acid were detected when AtGH3-12 was used; 4.5 mM of Nα-capryloylglycine, 4.6 mM of Nα-caprinoylglycine, 0.1 mM of Nα-lauroylglycine, 3.1 mM of Nα-capryloyl-L-alanine, 3.6 mM of Nα-caprinoyl-L-alanine and 0.4 mM of Nα-lauroyl-L-alanine were detected when CfHP was used.

[4] = Synthesis of N-lauroylamino acid / N-lauroylamino acid derivative using purified acylamino acid synthetase, UPLC-MS detection; set-up: key: +: Detected; −: Not detected; conditions: +ATP; remark: listed apart in the source
[5] = substrates Carnosine and sodium caprate
[6] = substrates D-Ala and sodium caprate
[7] = substrates D-Asp and sodium caprate
[8] = substrates D-Cys and sodium caprate
[9] = substrates D-Glu and sodium caprate
[10] = substrates D-Ile and sodium caprate
[11] = substrates D-Lys and sodium caprate
[12] = substrates L-Asp-L-Phe and sodium caprate
[13] = substrates L-Gly-L-Gly and sodium caprate
[14] = substrates Sarcosine and sodium caprate
[15] = substrates Taurine and sodium caprate
[16] = substrates Gly and sodium laurate
[17] = substrates L-Ala and sodium laurate
[18] = substrates L-Arg and sodium laurate
[19] = substrates L-Asp and sodium laurate
[20] = substrates L-Glu and sodium laurate
[21] = substrates L-Lys and sodium laurate
[22] = substrates L-Thr and sodium laurate
[23] = substrates β-Ala and sodium laurate
[24] = substrates Sarcosine and sodium laurate
[25] = substrates Taurine and sodium laurate

| signal of molecular weight corresponding to N-caprinoyl compound [1, 5] | signal of molecular weight corresponding to N-caprinoyl compound [1, 6] | signal of molecular weight corresponding to N-caprinoyl compound [1, 7] | signal of molecular weight corresponding to N-caprinoyl compound [1, 8] | signal of molecular weight corresponding to N-caprinoyl compound [1, 9] | signal of molecular weight corresponding to N-caprinoyl compound [1, 10] | signal of molecular weight corresponding to N-caprinoyl compound [1, 11] | signal of molecular weight corresponding to N-caprinoyl compound [1, 12] | signal of molecular weight corresponding to N-caprinoyl compound [1, 13] | signal of molecular weight corresponding to N-caprinoyl compound [1, 14] | signal of molecular weight corresponding to N-caprinoyl compound [1, 15] | signal of molecular weight corresponding to N-lauroyl amino acid [2, 16] | signal of molecular weight corresponding to N-lauroyl amino acid [2, 17] | signal of molecular weight corresponding to N-lauroyl amino acid [2, 18] | signal of molecular weight corresponding to N-lauroyl amino acid [2, 19] | signal of molecular weight corresponding to N-lauroyl amino acid [2, 20] | signal of molecular weight corresponding to N-lauroyl amino acid [2, 21] | signal of molecular weight corresponding to N-lauroyl amino acid [2, 22] | signal of molecular weight corresponding to N-lauroyl amino acid [2, 23] | Nα-caprinoyl-L-aspartic acid detected [3] | Molecule | also measured |
| --- | --- | --- | --- | --- | --- | --- | --- | --- | --- | --- | --- | --- | --- | --- | --- | --- | --- | --- | --- | --- | --- |
| + | + | + | + | + | + | + | + | + | + | + | + | + | + | + | + | + | + | + | 4.5 mM | AtGH3-6: indole-3-acetic acid-amido synthetase GH3.6 from Arabidopsis thaliana, expressed in E. coli with N-terminal His-tag (protein, listed as Arabidopsis thaliana, N-terminal His-tag, indole-3-acetic acid-amido synthetase GH3.6 from Arabidopsis thaliana, expressed in E. coli with N-terminal His-tag) MPEAPKIAALEVSDESLAEKNKNKLQFIEDVTTNADDVQRRVLEEILSRNADVEYLKRHGLEGRTDRETFKHIMPVVTYEDIQPEINRIANGDKSQVLCSNPISEFLTSSGTSGGERKLMPTIEEELDRRSLLYSLLMPVMDQFVPGLDKGKGMYFLFIKSESKTPGGLPARPVLTSYYKSSHFKNRPYDPYTNYTSPNQTILCSDSYQSMYSQMLCGLCQHKEVLRVGAVFASGFIRAIKFLEKHWPELARDIRTGTLSSEITDSSVREAVGEILKPDPKLADFVESECRKTSWQGIITRLWPNTKYVDVIVTGTMSQYIPTLDYYSNGLPLVCTMYASSECYFGVNLRPLCKPSEVSYTLIPNMAYFEFLPVHRNSGVTSSISLPKALTEKEQQELVDLVDVKLGQEYELVVTTYAGLYRYRVGDVLSVAGFKNNAPQFSFICRKNVVLSIDSDKTDEVELQNAVKNAVTHLVPFDASLSEYTSYADTSSIPGHYVLFWELCLNGNTPIPPSVFEDCCLTIEESLNSVYRQGRVSDKSIGPLEIKMVESGTFDKLMDYAISLGASINQYKTPRCVKFAPIIELLNSRVVDSYFSPKCPKWSPGHKQWGSN | Nα-capryloyl-L-aspartic acid detected [3]: 3.9 mM; Nα-lauroyl-L-aspartic acid detected [3]: 2.2 mM; signal of molecular weight corresponding to N-lauroyl amino acid derivative [4, 24]: +; signal of molecular weight corresponding to N-lauroyl amino acid derivative [4, 25]: + |
| + | + | + | + | + | + | + | + | + | + | + | + | + | + | + | + | + | + | + | 4.6 mM | OsGH3-8: probable indole-3-acetic acid-amido synthetase GH3.8 from Oryza sativa, expressed in E. coli with N-terminal His-tag (protein, listed as Oryza sativa, N-terminal His-tag, probable indole-3-acetic acid-amido synthetase GH3.8 from Oryza sativa, expressed in E. coli with N-terminal His-tag) MAVMTDVSTTGTALRTPAAGAVKEGDVEKLRFIDEMTTNVDAVQERVLGEILGRNAGTEYLTKCGLDGATDRAAFRAKVPVVSYDDLQPYIQRIANGDRSPILSTHPVSEFLTSSGTSAGERKLMPTIMDELDRRQLLYSLLMPVMNLYVPGLDKGKGLYFLFVKSETKTPGGLTARPVLTSYYKSDHFKNRPYDPYHNYTSPTAAILCADAFQSMYAQMVCGLCQRNDVLRLGAVFASGLLRAIRFLQLNWEQLADDIESGELTPRVTDPSVREAVAAILLPDPELAKLIRAECSKGDWAGIITRVWPNTKYLDVIVTGAMAQYIPTLEFYSGGLPMACTMYASSECYFGLNLRPMCDPSEVSYTIMPNMGYFEFLPVDETGAASGDATQLVDLARVEVGREYELVITTYAGLNRYRVGDVLRVTGFHNAAPQFRFVRRKNVLLSIESDKTDEAELQRAVERASALLRPHGASVVEYTSQACTKRIPGHYVIYWELLTKGAGATVVDADTLGRCCLEMEEALNTVYRQSRVADGSIGPLEIRVVRPGTFEELMDYAISRGASINQYKVPRCVTFPPIVELLDSRVVSSHFSPALPHWTPARRSE | Nα-capryloyl-L-aspartic acid detected [3]: 4.3 mM; Nα-lauroyl-L-aspartic acid detected [3]: 3.5 mM; signal of molecular weight corresponding to N-lauroyl amino acid derivative [4, 24]: −; signal of molecular weight corresponding to N-lauroyl amino acid derivative [4, 25]: + |

| Molecule | signal of molecular weight corresponding to N-caprinoyl compound [1, 5] | signal of molecular weight corresponding to N-caprinoyl compound [1, 6] | signal of molecular weight corresponding to N-caprinoyl compound [1, 7] | signal of molecular weight corresponding to N-caprinoyl compound [1, 8] | signal of molecular weight corresponding to N-caprinoyl compound [1, 9] | signal of molecular weight corresponding to N-caprinoyl compound [1, 10] | signal of molecular weight corresponding to N-caprinoyl compound [1, 11] | signal of molecular weight corresponding to N-caprinoyl compound [1, 12] | signal of molecular weight corresponding to N-caprinoyl compound [1, 13] | signal of molecular weight corresponding to N-caprinoyl compound [1, 14] | signal of molecular weight corresponding to N-caprinoyl compound [1, 15] | signal of molecular weight corresponding to N-lauroyl amino acid [2, 16] | signal of molecular weight corresponding to N-lauroyl amino acid [2, 17] | signal of molecular weight corresponding to N-lauroyl amino acid [2, 18] | signal of molecular weight corresponding to N-lauroyl amino acid [2, 19] | signal of molecular weight corresponding to N-lauroyl amino acid [2, 20] | signal of molecular weight corresponding to N-lauroyl amino acid [2, 21] | signal of molecular weight corresponding to N-lauroyl amino acid [2, 22] | signal of molecular weight corresponding to N-lauroyl amino acid [2, 23] | Nα-caprinoyl-L-aspartic acid detected [3] | also measured |
| --- | --- | --- | --- | --- | --- | --- | --- | --- | --- | --- | --- | --- | --- | --- | --- | --- | --- | --- | --- | --- | --- |
| CfHP: hypothetical protein from Cystobacter fuscus (GH3 protein), His-tagged (protein, listed as Cystobacter fuscus, His-tag, hypothetical protein from Cystobacter fuscus (GH3 protein), His-tagged) MQAAGRRDKQRFIEQTRHVARVNVDTLRAILQHNRDTDFGRRHGFASLRTVEDFQRALPVSTYEPFRPYMERIARGEQNVLTADRVEYLGITSGTTGQRKLLPVSRPHLENMRRTMMIGRAVVTEKVPAARRPSRGMILMNAVLRERSEGGLLTGALTAISTHSMGRAASFAFTSPPEAFRLRKHADALYLHLLFGLRERELGTLMAPFASGLLDMVHLLERRGADLVDDIARGVLRPELDLEPEQRRLLQSRLLPDPERAREVSQALEQGPHGLLRRLWPRLAYVSSITGASFSLYTRQLTPYLEGVPLSAASYVSTEGILGVPLELEQAVYCLMVGMAFFEFIPERELDAESPTTLLPEQLVEGEAYEVVLTTQAGLYRYRLGDVVRIVGRYHEAPLMEFLYRRGALLNLMGEKTSEHAARLALEQALATEGLLPADYSVVEETETLPGRYALFVELQEGARPQGAPEQLSRALEEALCRTNPFYEVIRRSERLGAAQLHRVEPGTFQALRDVLVQRGASPTQVKVPRVVRDAELQGLLRQRRVTG | + | + | + | + | + | + | + | + | + | + | + |  |  |  |  |  |  |  |  |  | Nα-caprinoylglycine detected ([3]; 5 mM Gly): 4.6 mM; Nα-capryloylglycine detected ([3]; 5 mM Gly): 4.5 mM; Nα-lauroylglycine detected ([3]; 5 mM Gly): 0.1 mM; Nα-caprinoyl-L-alanine detected ([3]; 5 mM L-Ala): 3.6 mM; Nα-capryloyl-L-alanine detected ([3]; 5 mM L-Ala): 3.1 mM; Nα-lauroyl-L-alanine detected ([3]; 5 mM L-Ala): 0.4 mM |

— patent publication US12281340B2, “Method of producing N-acyl-amino group-containing compound” (AJINOMOTO CO., INC., priority 2018, dated 2025)
